# Results taken from patent US10378034B2, “Use of a N-acetylneuraminate lyase derived from the bacterium Aliivibrio salmonicida in the production of neuraminic acid and derivatives thereof” (Universitetet i Tromsø-Norges Arktiske Universitet, priority 2014, dated 2019).
# B1: AsNAL: N-acetylneuraminate lyase isolated from the psychrophilic bacterium Aliivibrio salmonicida LFI1238, recombinantly expressed in E. coli (protein, listed as Aliivibrio salmonicida)
# chain: MKKLTGLIAAPHTPFDSSSNVNFEEIDKIAKHLINDGVKGIYVCGTTGEGIHCSVEERKAIAERWVSACNHKLDIIVHTGALSIVDTLELTRHADTLDILATSAIGPCFFKPGSVSDLVEYCATIAAAAPSKGFYYYHSGMSGVNLNMEEFLIQADKRIPNLSGLKFNSGDLYEYQRCLRACDGKFDVPFGVDEFLPGALAVGAKSAVGSTYNYAAPHFNSIIEAFNKGDHDAVFNKMTNVIELIRVLVEFGGVAAGKIAMELHDINAGDPRLPLMPLSAEQKLTVVEKMRAANFLK
# Columns and labels:
# [1] = TBA assay, condensation activity: pH and temperature profiles; format: biochemical
# Procedure: Both the condensation and cleavage activities of NAL were assessed using the modified thiobarbituric acid (TBA) assay developed by Aminoff (1961) and Warren (1959). The condensation activity was determined by incubating 50 μl of a reaction mixture containing 15 mM sodium pyruvate, 15 mM ManNAc, 124 mM HEPES pH 8.0 and different concentrations of enzyme depending on assay type at selected temperatures for the required amount of time. The reaction was terminated by adding 137 μl 2.5 mg/ml sodium periodate in 57 mM H2SO4, followed by incubation at 37° C. for 15 min with shaking at 1350 rpm. Sodium arsenite (50 μl, 25 mg/ml sodium arsenite in 0.5 M HCl) was added resulting in brown color. The tubes were shaken manually until the brown color disappeared. 2-thiobarbituric acid solution (100 μl, 71 mg/ml adjusted to pH 9.0) was subsequently added, and the tubes were incubated in boiling water for 7.5 min. […] The organic phase containing the red chromophore (200 μl) was used for measurement of absorbance at 549 nm in a spectrophotometer (SpectraMax M2e, Molecular Devices). […]
# pH profiles were determined by assaying the enzyme in triplicate for both condensation and cleavage directions at pH values ranging from 5.5 to 11.0 with 0.5 pH unit intervals. […] Temperature profiles were determined for both directions by assaying the enzyme in triplicate from 4 to 80° C. in HEPES buffer pH 8.0. […]
# [2] = TBA assay, cleavage activity: pH and temperature profiles; format: biochemical
# Procedure: The cleavage activity was determined by incubating 50 μl of a reaction mixture containing 5 mM Neu5Ac, 124 mM HEPES pH 8.0 and different concentrations of enzyme depending on assay type at selected temperatures for the required amount of time. Termination of the reactions and subsequent steps of the assay are as described above. The decrease in absorbance is correlated to the increase in cleavage activity.
# pH profiles were determined by assaying the enzyme in triplicate for both condensation and cleavage directions at pH values ranging from 5.5 to 11.0 with 0.5 pH unit intervals. Sodium phosphate buffer was used from pH 5.5 to 7.5, HEPES buffer from pH 6.5 to 8.0, Tris-HCl buffer from pH 7.5 to 9.0 and Glycine buffer from pH 9.0 to 11.0. The reaction mixture was incubated at room temperature for 1 h before being subjected to the TBA assay. Temperature profiles were determined for both directions by assaying the enzyme in triplicate from 4 to 80° C. in HEPES buffer pH 8.0. The reaction mixture was incubated for 30 min at selected temperatures and the reaction was terminated by adding 2 μl of concentrated H2SO4 and then subjected to the TBA assay.
# [3] = Long term stability at different pH (condensation activity after one month); format: physicochemical
# Procedure: (§1) Long term stability of AsNAL at different pH was studied by incubating the enzyme at pH values from 6.0 to 11.0 at room temperature for a month. Buffers used were Sodium phosphate (pH 6.0-7.0), HEPES (pH 7.0-8.0), Tris-HCl (pH 8.0-9.0) and glycine (pH 9.0-11.0). The enzyme activity in the condensation direction was measured using the standard reaction mixture incubated at room temperature for 1 h, with subsequent TBA assay. The stability of AsNAL at different pH was also studied using the thermofluor method described by Ericsson et al. (2006) where increased or decreased stability is related to the increase or decrease in the melting temperature of the protein. For the thermofluor assay, the protein was dialyzed overnight at 4° C. against a buffer containing 10 mM HEPES pH 7.5, 150 mM NaCl and 2 mM β-ME in Pierce Slide-A-Lyzer dialysis cassettes with a 3.5 kDa cutoff. The dialyzed protein was mixed with 2 μl of 300× Sypro® Orange protein gel stain (Sigma) and 100 mM of different buffers ranging from pH 5.0 to pH 9.0. Thermal shifts were screened for by heating in an iCycler iQ Real Time PCR Detection System (Bio-Rad Laboratories) from 1 to 80° C. in increments of 1° C./min. The buffers tested were: Sodium acetate (pH 5.0), Phosphate citrate (pH 5.0-5.5), Sodium citrate (pH 5.5), MES (pH 6.0-6.5), Na-cacodylate (pH 6.0-6.5), Sodium dipotassium phosphate (pH 6.5), BisTris (pH 7.0), HEPES (pH 7.0-8.0), Tris-HCl (pH 7.5-8.5), Imidazole (pH 7.5-8.0), Bicine (pH 8.5) and BisTris propane (pH 8.5-9.0).
# [4] = Thermofluor thermal denaturation; format: physicochemical
# Procedure: as §1, with “The buffers tested were: Sodium acetate (pH 5.0), Phosphate citrate (pH 5.0-5.5), Sodium citrate (pH 5.5), MES (pH 6.0-6.5), Na-cacodylate (pH 6.0-6.5), Sodium dipotassium phosphate (pH 6.5), BisTris (pH 7.0), HEPES (pH 7.0-8.0), Tris-HCl (pH 7.5-8.5), Imidazole (pH 7.5-8.0), Bicine (pH 8.5) and BisTris propane (pH 8.5-9.0).” left out
# [5] = Differential scanning calorimetry (DSC); format: physicochemical; settings: 500 mM NaCl, 50 mM HEPES pH 7.5
# Procedure: The melting temperature of AsNAL was studied by differential scanning calorimetry (DSC). The pure protein was dialyzed overnight at 4° C. against a buffer containing 50 mM HEPES, pH 7.5 and 500 mM NaCl in a Pierce Slide-A-Lyzer dialysis cassette (3.5 kDa cut-off). Dialyzed protein was concentrated to 1.9 mg/ml using a 10 kDa cutoff Amicon Ultra spin-column (Millipore), filtered through a 0.2 μm filter (Millipore) and degassed for 15 min. DSC experiments were carried out with a Nano-Differential Scanning Calorimeter III, (calorimetry Sciences Corporation) at a scan rate of 1° C./min in the range from 1 to 80° C. and with a constant pressure of 3 atm. The dialysis buffer was used as reference in the DSC runs. The melting temperature of the protein was calculated by subtracting the buffer-buffer baseline from the protein scan. Refolding experiments were carried out by a reverse cooling scan, allowing the unfolded protein to be kept at 4° C. overnight before a new forward scan was done. The NanoAnalyze™ software was used to calculate the melting temperature. The experimental transition curves were fitted on a two-state transition model.
# [6] = Comparative specific activity, condensation reaction (TBA assay); format: biochemical
# Procedure: Both the condensation and cleavage activities of NAL were assessed using the modified thiobarbituric acid (TBA) assay developed by Aminoff (1961) and Warren (1959). The condensation activity was determined by incubating 50 μl of a reaction mixture containing 15 mM sodium pyruvate, 15 mM ManNAc, 124 mM HEPES pH 8.0 and different concentrations of enzyme depending on assay type at selected temperatures for the required amount of time. The reaction was terminated by adding 137 μl 2.5 mg/ml sodium periodate in 57 mM H2SO4, followed by incubation at 37° C. for 15 min with shaking at 1350 rpm. Sodium arsenite (50 μl, 25 mg/ml sodium arsenite in 0.5 M HCl) was added resulting in brown color. The tubes were shaken manually until the brown color disappeared. 2-thiobarbituric acid solution (100 μl, 71 mg/ml adjusted to pH 9.0) was subsequently added, and the tubes were incubated in boiling water for 7.5 min. The tubes were incubated on ice for 5 min and allowed to remain at room temperature for 5 min. The red chromophore was extracted by addition of acidic butanol (1 ml of acidic butanol with 5% HCl) and horizontal shaking for 10 min. Tubes were centrifuged at 16060×g, 7 min (room temperature) to separate the organic and inorganic phases. The organic phase containing the red chromophore (200 μl) was used for measurement of absorbance at 549 nm in a spectrophotometer (SpectraMax M2e, Molecular Devices). The amount of Neu5Ac produced was inferred from a standard curve. To generate a standard curve, different concentrations of Neu5Ac (0.031 mM-1 mM) were treated with 137 μl of 2.5 mg/ml sodium periodate in 57 mM H2SO4 and the TBA assay procedure was followed as described above.
# Standard reaction mixtures were incubated at room temperature for 1 h before being subjected to the TBA assay.
# [7] = at 10° C., relative to highest value
molecule,measurement,setting,value
B1,"optimal temperature, condensation reaction","[1]; HEPES buffer pH 8.0, 30 min",20 °C
same,condensation activity retained,[1]; [7],75%
same,"optimal temperature, cleavage reaction","[2]; HEPES buffer pH 8.0, 30 min",65 °C
same,cleavage activity retained,[2]; [7],30%
same,decrease in activity (condensation) after one month,"[3]; Glycine pH 11.0, room temperature",3.3%
same,decrease in activity (condensation) after one month,"[3]; HEPES pH 8.0, room temperature",14.5%
same,decrease in activity (condensation) after one month,"[3]; Phosphate pH 7.0, room temperature",15%
same,decrease in activity (condensation) after one month,"[3]; Tris-HCl pH 8.0, room temperature",14%
same,decrease in activity (condensation) after one month,"[3]; Tris-HCl pH 8.5, room temperature",6.4%
same,decrease in activity (condensation) after one month,"[3]; Tris-HCl pH 9.0, room temperature",4%
same,activity retained after storage compared to initial activity,"[3]; all measured pH (6.0 to 11.0), one month, room temperature",More than 83%
same,melting temperature (thermofluor),[4]; 500 mM NaCl,76.9 °C
same,melting temperature (thermofluor),[4]; milli-Q water,73.15±0.21 °C
same,melting temperature (DSC),[5],77.5 °C
same,ΔH (DSC),[5],179.164 kcal/mol
same,ΔS (DSC),[5],2.137 kJ/(mol·K)
same,"specific activity of the condensation reaction, higher than EcNAL",[6]; 4° C.,40%
same,"specific activity of the condensation reaction, higher than EcNAL",[6]; 23° C.,60%
same,"specific activity of the condensation reaction, higher than EcNAL",[6]; 37° C.,40%
